Reference: patent US20230399393A1, “METHODS TO EXTEND HEALTH-SPAN AND TREAT AGE-RELATED DISEASES” (National University of Singapore, priority 2020, published 2023)

What was measured:
Type in all cases: in vivo, mouse
C57Bl/6J mice [1] = test: Analysis of geropathological lesions in tissue sections; conditions: at 110 weeks; heart, lung, liver, spleen, kidney, skeletal muscle; vs IgG control antibody
Procedure: C57Bl/6J mice are randomised to receive either X203 or IgG control antibody at a dose of 40m/kg via IP injection every 3 weeks from age 55 weeks to age 110 weeks.
At 110 weeks, mice are euthanized, sections are prepared from heart, lung, liver, spleen, kidney and skeletal muscle tissues, subjected to hematoxylin and eosin or Masson's trichrome staining and analysed by light microscopy. Tissue sections are evaluated for ageing-associated lesions as described in Snider et al., Geroscience (2019) 40: 97-103 and Snyder et al., Geroscience (2019) 41: 455-465 (both hereby incorporated by reference in their entirety). Analysis is performed by a veterinary pathologist blinded to treatment group.

C57Bl/6J mice [2] = test: Renal function: blood urea nitrogen (BUN) and creatinine
Procedure: C57Bl/6J mice are randomised to receive either X203 or IgG control antibody at a dose of 40 mg/kg via IP injection every 3 weeks from age 55 weeks to age 110 weeks, and renal function was evaluated by analysis of serum levels of blood urea nitrogen (BUN) and creatinine using the Urea Assay Kit (ab83362, Abcam) and Creatinine Assay Kit (ab65340, Abcam) in accordance with the manufacturer's instructions.
Levels of BUN and serum creatinine was also analysed in 12 week-old male and female C57Bl/6J mice, in order to determine baseline levels. Data were analysed by 2-way ANOVA.

C57Bl/6J mice [3] = test: Metabolic function: serum/liver triglyceride, serum cholesterol, serum hydroxybutyrate
Procedure: C57Bl/6J mice were randomised to receive either X203 or IgG control antibody at a dose of 40 mg/kg via IP injection every 3 weeks from age 55 weeks to age 110 weeks, and serum triglyceride, liver triglyceride, serum cholesterol and serum p-hydroxybutyrate levels were measured using Triglyceride Assay Kit (ab65336, Abcam), Cholesterol Assay Kit (ab65390, Abcam), and Beta-Hydroxybutyrate Colorimetric Assay Kit (700190; Cayman chemicals), in accordance with the manufacturer's instructions. Levels of serum triglyceride, liver triglyceride, serum cholesterol and serum p-hydroxybutyrate were also analysed in 12 week-old male and female C57Bl/6J mice, in order to determine baseline levels. Data were analysed by 2-way ANOVA.

[4] = treatment from age 55 to 110 weeks

B1: X203: mouse anti-mouse IL-11 IgG antagonist antibody; VH SEQ ID NO:22, VL SEQ ID NO:23 (antibody, V domains shown)
VH: EVQLQQSGPELVKPGASVKIPCKASGYTFTDYNMDWVKQSHGKSLEWIGDINPHNGGPIYNQKFTGKATLTVDKSSSTAYMELRSLTSEDTAVYYCARGELGHWYFDVWGTGTTVTVSS
VL: DIVLTQSPASLAVSLGQRATISCRASKSVSTSGYSYIHWYQQKPGQPPKLLIYLASNLDSGVPARFSGSGSGTDFTLNIHPVEEEDAATYYCQHSRDLPPTFGGGTKLEIK
- geropathology lesions (C57Bl/6J mice [1]): fewer, smaller and/or less developed
- reduction in creatinine levels relative to IgG control (C57Bl/6J mice [2]; female mice, baseline 12 week old female 0.77 mg/dl): 43%
- reduction in BUN levels relative to IgG control (C57Bl/6J mice [2]; female mice, baseline mean BUN of 12 week old female mice 31.8 mg/dl): 42%
- reduction in creatinine levels relative to IgG control (C57Bl/6J mice [2]; male mice, baseline 12 week old male 0.92 mg/dl): 60%
- reduction in BUN levels relative to IgG control (C57Bl/6J mice [2]; male mice, baseline mean BUN of 12 week old male mice 51.3 mg/dl): 79%
- renal function (C57Bl/6J mice [2]; vs IgG control antibody): improved
- reduction in serum triglyceride levels relative to IgG control (C57Bl/6J mice [3]; female mice, baseline 12 week old female 37 mg/dl): 47%
- reduction in serum cholesterol levels relative to IgG control (C57Bl/6J mice [3]; female mice, baseline 12 week old female 90 mg/dl): 51%
- reduction in liver triglyceride levels relative to IgG control (C57Bl/6J mice [3]; female mice, baseline 12 week old female 130 mg/g): 54%
- reduction in serum triglyceride levels relative to IgG control (C57Bl/6J mice [3]; male mice, baseline 12 week old male 54 mg/dl): 65%
- reduction in serum cholesterol levels relative to IgG control (C57Bl/6J mice [3]; male mice, baseline 12 week old male 149 mg/dl): 45%
- reduction in liver triglyceride levels relative to IgG control (C57Bl/6J mice [3]; male mice, baseline 12 week old male 165 mg/g): 71%
- aging-associated hypertriglyceridemia, steatosis (liver fat accumulation) and hypercholesterolemia (C57Bl/6J mice [3]; [4]): reduce
- levels of circulating β-hydroxybutyrate (C57Bl/6J mice [3]; [4]): increase
